Data as given in patent US20110059490, “POLYMERASE COMPOSITIONS AND USES” (Fermentas UAB, published 2011).

Columns and labels:
[1] = target: T1, Thermococcus sp. DNA polymerase (Thermococcus sp.) (UniProt Q56366); assay: EMSA; details: EMSA as for Taq, 1x TAE with 2 mM EDTA
T1 sequence: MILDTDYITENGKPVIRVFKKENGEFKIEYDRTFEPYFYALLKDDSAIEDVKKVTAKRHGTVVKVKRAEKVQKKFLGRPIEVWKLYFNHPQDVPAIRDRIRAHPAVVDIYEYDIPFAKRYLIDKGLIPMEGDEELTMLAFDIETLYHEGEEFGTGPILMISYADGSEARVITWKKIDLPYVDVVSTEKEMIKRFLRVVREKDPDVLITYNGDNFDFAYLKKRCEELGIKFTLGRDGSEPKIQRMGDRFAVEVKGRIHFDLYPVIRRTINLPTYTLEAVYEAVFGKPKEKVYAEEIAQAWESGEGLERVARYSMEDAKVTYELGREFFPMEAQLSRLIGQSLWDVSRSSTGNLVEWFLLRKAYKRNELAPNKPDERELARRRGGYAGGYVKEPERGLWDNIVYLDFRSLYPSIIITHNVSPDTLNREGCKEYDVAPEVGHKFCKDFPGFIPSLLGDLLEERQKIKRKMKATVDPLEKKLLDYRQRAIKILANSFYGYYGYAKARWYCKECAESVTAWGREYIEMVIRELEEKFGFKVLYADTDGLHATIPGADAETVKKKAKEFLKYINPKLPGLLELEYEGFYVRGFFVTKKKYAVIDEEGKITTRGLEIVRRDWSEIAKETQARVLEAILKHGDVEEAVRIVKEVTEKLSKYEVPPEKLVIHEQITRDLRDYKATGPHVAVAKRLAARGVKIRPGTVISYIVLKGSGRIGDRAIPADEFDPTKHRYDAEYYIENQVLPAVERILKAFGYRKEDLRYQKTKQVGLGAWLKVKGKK

[2] = target: Thermococcus sp. DNA polymerase R671E/K677E/K712E R671E,K677E,K712E (Thermococcus sp.) (UniProt Q56366); assay: EMSA; details: EMSA as for Taq, 1x TAE with 2 mM EDTA
[3] = target: Thermococcus sp. DNA polymerase (R671S/K677S/K712S)/N210D R671S,K677S,K712S,N210D (Thermococcus sp.) (UniProt Q56366); assay: EMSA; details: EMSA as for Taq, 1x TAE with 2 mM EDTA
[4] = target: Thermococcus sp. DNA polymerase R671E/K677E R671E,K677E (Thermococcus sp.) (UniProt Q56366); assay: EMSA; details: EMSA as for Taq, 1x TAE with 2 mM EDTA
[5] = target: T2, Thermococcus sp. DNA polymerase R671S/K677S/K712S R671S,K677S,K712S (Thermococcus sp.) (UniProt Q56366); assay: EMSA; details: EMSA as for Taq, 1x TAE with 2 mM EDTA
T2 sequence: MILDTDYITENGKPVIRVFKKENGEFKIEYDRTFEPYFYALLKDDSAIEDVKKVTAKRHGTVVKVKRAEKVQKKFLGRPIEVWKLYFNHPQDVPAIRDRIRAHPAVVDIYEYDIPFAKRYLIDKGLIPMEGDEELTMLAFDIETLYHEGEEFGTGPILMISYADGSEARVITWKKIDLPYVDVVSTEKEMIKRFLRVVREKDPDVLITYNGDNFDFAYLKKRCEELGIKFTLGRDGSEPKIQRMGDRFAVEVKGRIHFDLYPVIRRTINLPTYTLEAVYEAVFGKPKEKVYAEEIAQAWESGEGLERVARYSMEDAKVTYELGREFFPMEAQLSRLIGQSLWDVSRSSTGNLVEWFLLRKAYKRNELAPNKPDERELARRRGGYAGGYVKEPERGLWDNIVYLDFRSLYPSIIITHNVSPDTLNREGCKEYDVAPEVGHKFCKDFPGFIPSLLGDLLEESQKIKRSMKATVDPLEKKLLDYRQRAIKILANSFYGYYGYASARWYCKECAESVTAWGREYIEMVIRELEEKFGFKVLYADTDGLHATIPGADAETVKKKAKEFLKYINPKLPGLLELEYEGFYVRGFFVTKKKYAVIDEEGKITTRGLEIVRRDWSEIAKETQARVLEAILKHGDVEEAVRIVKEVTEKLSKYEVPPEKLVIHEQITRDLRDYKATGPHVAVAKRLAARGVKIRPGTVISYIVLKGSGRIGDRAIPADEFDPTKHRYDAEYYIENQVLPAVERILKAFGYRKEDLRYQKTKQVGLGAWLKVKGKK

[6] = target: Thermococcus sp. DNA polymerase (R671E/K677E/K712E)/N210D R671E,K677E,K712E,N210D (Thermococcus sp.) (UniProt Q56366); assay: EMSA; details: EMSA as for Taq, 1x TAE with 2 mM EDTA
[7] = target: T3, Taq DNA polymerase I532T/R536C/K540C/H784C (UniProt P19821 P19821:1-832, I532T,R536C,K540C,H784C); assay: EMSA; 1x TAE with 2 mM EDTA, pH 8.3, 10% glycerol; details: tags: Fermentas; label: 5'-33P on 24 nt strand; 24 nt primer annealed to 44 nt template, 20 nt 5' template overhang
T3 sequence (P19821 whole entry I532T/R536C/K540C/H784C, one chain of several): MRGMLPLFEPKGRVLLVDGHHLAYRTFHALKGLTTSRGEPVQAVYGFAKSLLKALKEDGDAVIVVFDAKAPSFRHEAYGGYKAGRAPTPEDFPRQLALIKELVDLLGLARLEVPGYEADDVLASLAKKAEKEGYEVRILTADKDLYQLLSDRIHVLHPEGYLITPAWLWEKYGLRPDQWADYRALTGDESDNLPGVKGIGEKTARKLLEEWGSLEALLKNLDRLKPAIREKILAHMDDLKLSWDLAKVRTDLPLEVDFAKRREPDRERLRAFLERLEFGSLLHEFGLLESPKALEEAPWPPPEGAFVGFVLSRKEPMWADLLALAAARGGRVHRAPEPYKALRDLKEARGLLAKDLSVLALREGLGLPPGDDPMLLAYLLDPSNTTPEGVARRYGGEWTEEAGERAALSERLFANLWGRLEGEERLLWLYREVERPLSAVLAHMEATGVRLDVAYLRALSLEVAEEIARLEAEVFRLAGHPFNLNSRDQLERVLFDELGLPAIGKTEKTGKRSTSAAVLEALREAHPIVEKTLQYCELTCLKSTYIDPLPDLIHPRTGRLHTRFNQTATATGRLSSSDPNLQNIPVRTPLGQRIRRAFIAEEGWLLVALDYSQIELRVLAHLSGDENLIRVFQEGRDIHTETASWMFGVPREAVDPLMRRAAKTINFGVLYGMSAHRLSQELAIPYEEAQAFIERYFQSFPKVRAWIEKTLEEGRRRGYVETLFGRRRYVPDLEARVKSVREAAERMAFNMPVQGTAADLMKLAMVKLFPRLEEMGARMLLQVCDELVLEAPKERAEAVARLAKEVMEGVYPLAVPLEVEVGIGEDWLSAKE
Description: (§1) Affinity of Taq DNA polymerase (FIG. 7A) and its mutants (FIG. 7B-J) for double-stranded DNA (template-primer duplex) was analyzed by electrophoretic mobility shift assays (EMSA) as previously described (Lagunavicius et al. (2003) J. Mol. Biol. 326: 1051-1064) except that 1 nM of 24*/44 nt duplex (* indicates ³³P label in 5′-terminus of 24 nt oligonucleotide) formed by annealing of 5′-[…]-3′ (24 nt) and 5′-[…]-3′ (44 nt) and 0, 1, 2, 5, 10, 20, 50, 100, 200, 500, 1000 nM of the proteins were mixed in 1×TAE buffer (40 mM Tris-acetate, pH8.3 at 25° C.; 2 mM EDTA) supplemented with 10% glycerol and electrophoresis was performed in 12% PAAG. The gels were analyzed by Cyclone Storage Phosphor System and OptiQuant™ Image Analysis Software (Packard Instruments) and GraphPad Prism version 4.03 Software (GraphPad Software, Inc.) (FIG. 7).
(§2) Affinity of Taq DNA polymerase (FIG. 8A) and its mutants (FIG. 8B-G) for single-stranded DNA (primer) was analyzed as described in Example 7, except that 5′-labeled 24 nt oligonucleotide (5′-[…]) was used instead of 24*/44 nt duplex (FIG. 8).

[8] = target: Taq DNA polymerase (K540C/H784C)/Y81F (UniProt P19821 P19821:1-832, K540C,H784C,Y81F); assay: EMSA; 1x TAE with 2 mM EDTA, pH 8.3, 10% glycerol; details: tags: Fermentas
Taq DNA polymerase (K540C/H784C)/Y81F, sequence (P19821 whole entry Y81F/K540C/H784C, one chain of several): as the sequence (P19821 whole entry I532T/R536C/K540C/H784C, one chain of several) above, with Y81F, T532I, C536R counted along it
Description: as §1, §2

[9] = target: T4, Taq DNA polymerase N485S/R536C/K540C/H784C (UniProt P19821 P19821:1-832, N485S,R536C,K540C,H784C); assay: EMSA; 1x TAE with 2 mM EDTA, pH 8.3, 10% glycerol; details: tags: Fermentas; label: 5'-33P on 24 nt strand; 24 nt primer annealed to 44 nt template, 20 nt 5' template overhang
T4 sequence (P19821 whole entry N485S/R536C/K540C/H784C, one chain of several): as the sequence (P19821 whole entry I532T/R536C/K540C/H784C, one chain of several) above, with N485S, T532I counted along it
Description: as §1, §2

[10] = target: T5, Taq DNA polymerase (K540C/H784C)/R25S (UniProt P19821 P19821:1-832, K540C,H784C,R25S); assay: EMSA; 1x TAE with 2 mM EDTA, pH 8.3, 10% glycerol; details: tags: Fermentas; label: 5'-33P on 24 nt strand; 24 nt primer annealed to 44 nt template, 20 nt 5' template overhang
T5 sequence (P19821 whole entry R25S/K540C/H784C, one chain of several): as the sequence (P19821 whole entry I532T/R536C/K540C/H784C, one chain of several) above, with R25S, T532I, C536R counted along it
Description: as §1, §2

[11] = target: Taq DNA polymerase E491G/R536C/K540C/H784C (UniProt P19821 P19821:1-832, E491G,R536C,K540C,H784C); assay: EMSA; 1x TAE with 2 mM EDTA, pH 8.3, 10% glycerol; details: tags: Fermentas
Taq DNA polymerase E491G/R536C/K540C/H784C, sequence (P19821 whole entry E491G/R536C/K540C/H784C, one chain of several): as the sequence (P19821 whole entry I532T/R536C/K540C/H784C, one chain of several) above, with E491G, T532I counted along it
Description: as §1, §2

[12] = target: T6, Taq DNA polymerase R536C/K540C/D610A/H784C (UniProt P19821 P19821:1-832, R536C,K540C,D610A,H784C); assay: EMSA; 1x TAE with 2 mM EDTA, pH 8.3, 10% glycerol; details: tags: Fermentas; label: 5'-33P on 24 nt strand; 24 nt primer annealed to 44 nt template, 20 nt 5' template overhang
T6 sequence (P19821 whole entry R536C/K540C/D610A/H784C, one chain of several): as the sequence (P19821 whole entry I532T/R536C/K540C/H784C, one chain of several) above, with T532I, D610A counted along it
Description: as §1, §2

[13] = target: Taq DNA polymerase K540C/H784C (UniProt P19821 P19821:1-832, K540C,H784C); assay: EMSA; 1x TAE with 2 mM EDTA, pH 8.3, 10% glycerol; details: tags: Fermentas
Taq DNA polymerase K540C/H784C, sequence (P19821 whole entry K540C/H784C, one chain of several): as the sequence (P19821 whole entry I532T/R536C/K540C/H784C, one chain of several) above, with T532I, C536R counted along it
Description: as §1, §2

[14] = target: Taq DNA polymerase (I532T/R536C/K540C/H784C)/(R25S/Y81F/G187A) (UniProt P19821 P19821:1-832, I532T,R536C,K540C,H784C,R25S,Y81F,G187A); assay: EMSA; 1x TAE with 2 mM EDTA, pH 8.3; above highest tested 1000 nM; details: tags: Fermentas
Taq DNA polymerase (I532T/R536C/K540C/H784C)/(R25S/Y81F/G187A), sequence (P19821 whole entry R25S/Y81F/G187A/I532T/R536C/K540C/H784C, one chain of several): as the sequence (P19821 whole entry I532T/R536C/K540C/H784C, one chain of several) above, with R25S, Y81F, G187A counted along it
Description: as §1, §2

[15] = target: Taq DNA polymerase (R536C/K540C/D610A/H784C)/(Y81F/G187A) (UniProt P19821 P19821:1-832, R536C,K540C,D610A,H784C,Y81F,G187A); assay: as above; details: tags: Fermentas
Taq DNA polymerase (R536C/K540C/D610A/H784C)/(Y81F/G187A), sequence (P19821 whole entry Y81F/G187A/R536C/K540C/D610A/H784C, one chain of several): as the sequence (P19821 whole entry I532T/R536C/K540C/H784C, one chain of several) above, with Y81F, G187A, T532I, D610A counted along it
Description: as §1, §2

[16] = target: T4, Taq DNA polymerase …; assay: EMSA; 1x TAE with 2 mM EDTA, pH 8.3; tighter than WT; details: tags: Fermentas; label: 5'-33P
Taq DNA polymerase = Taq DNA polymerase (UniProt P19821 P19821:1-832); assay: EMSA; 1x TAE with 2 mM EDTA, pH 8.3, 10% glycerol; details: tags: recombinant, Fermentas; label: 5'-33P
Taq DNA polymerase, sequence (P19821 whole entry, one chain of several): as the sequence (P19821 whole entry I532T/R536C/K540C/H784C, one chain of several) above, with T532I, C536R, C540K, C784H counted along it
Description: as §1, §2

[17] = target: T3, Taq DNA polymerase …; assay: EMSA; 1x TAE with 2 mM EDTA, pH 8.3; above highest tested 1000 nM; details: tags: Fermentas; label: 5'-33P
Description: as §1, §2

[18] = target: T5, Taq DNA polymerase (K540C/H784C)/R25S; assay: as above; details: tags: Fermentas; label: 5'-33P
Description: as §1, §2

[19] = target: T6, Taq DNA polymerase …; assay: as above; details: tags: Fermentas; label: 5'-33P
Description: as §1, §2

[20] = label: 5'-33P on 24 nt strand, 24 nt primer annealed to 44 nt template, 20 nt 5' template overhang

TTTTAGCCGCTAGAGTCGACCTGC / GGAGACAAGCTTGTATGCCTGCAGGTCGACTCTAGCGGCTAAAA [24/44 nt template-primer duplex]
Kd [1]: 2.8 nM | Kd [2]: 190 nM | Kd [3]: 190 nM | Kd [4]: 240 nM | Kd [5]: 110 nM | Kd [6]: 470 nM

TTTTAGCCGCTAGAGTCGACCTGC [24 nt primer]
Kd [1]: 52 nM | Kd [2]: 740 nM | Kd [3]: 440 nM | Kd [4]: 730 nM | Kd [5]: 310 nM | Kd [6]: 2300 nM

B1: 24/44 nt template-primer duplex (dsDNA)
DNA 1: TTTTAGCCGCTAGAGTCGACCTGC
DNA 2: GGAGACAAGCTTGTATGCCTGCAGGTCGACTCTAGCGGCTAAAA
Kd [7]: 990 nM | Kd [8, 20]: 28 nM | Kd [9]: 32 nM | Kd [10]: 56 nM | Kd [11, 20]: 200 nM | Kd [12]: 320 nM | Kd [13, 20]: 25 nM | Kd [14, 20]: 16000 nM | Kd [15, 20]: 2200 nM

B2: 24 nt primer (ssDNA)
DNA: TTTTAGCCGCTAGAGTCGACCTGC
Kd [16]: 23 nM | Kd (Taq DNA polymerase): 79 nM | Kd ([8]; label: 5'-33P): 350 nM | Kd ([11]; label: 5'-33P): 530 nM | Kd ([13]; label: 5'-33P): 460 nM | Kd ([14]; label: 5'-33P): 7700 nM | Kd [17]: 5200 nM | Kd [18]: 2700 nM | Kd [19]: 2000 nM | Kd ([15]; label: 5'-33P): 3700 nM
